Results from patent US20230242620A1.

Tests used:
[1] = target: serum sample IHUS#B09032311A1; assay: ECL drug displacement assay, variant as competitor against labelled SEQ ID NO:1
[2] = target: serum sample IHUS#B09032311A3 (pre-existing antibodies against ISV); assay: as above
[3] = target: serum sample IHUS#B09032311A20 (pre-existing antibodies against ISV); assay: as above
[4] = target: affinity purified antibody IHuP#002-001-ABL-08; assay: ECL bridging/competition assay, 10 ug/ml ISV, 400 ng/ml antibody, labelled SEQ ID NO:1
[5] = target: analytical polyclonal antibody generated in Example 2; assay: SPR Biacore T100, polyclonal immobilized, 500 nM ISV, RU at end of injection

Row | Binder | % reduction [1] | ECLU confirmatory assay [1] | % reduction [2] | ECLU confirmatory assay [2] | % reduction [3] | ECLU confirmatory assay [3] | % reduction [4] | ECLU confirmatory assay [4] | Binding (RU) [5]
1 | Example 1C: (A14P, R39Q, K83R, T91Y, Q108L)-QA (VHH) VHH: EVQLVESGGGLVQPGGSLRLSCAASGRTFNNYAMGWFRQAPGKEREFVAAITRSGVRSGVSAIYGDSVKDRFTISRDNAKNTLYLQMNSLRPEDTAVYYCAASAIGSGALRRFEYDYSGQGTLVTVSS | 3% | 60 ECLU | 18% | 1810 ECLU | 18% | 15100 ECLU | 58.6% | 1210 ECLU | –
2 | Example 1C: (A14P, K83R, Q108L) (VHH) VHH: EVQLVESGGGLVQPGGSLRLSCAASGRTFNNYAMGWFRRAPGKEREFVAAITRSGVRSGVSAIYGDSVKDRFTISRDNAKNTLYLQMNSLRPEDTAVYTCAASAIGSGALRRFEYDYSGQGTLVTVSS | 8% | 57 ECLU | 93% | 156 ECLU | 97% | 628 ECLU | 89.1% | 319 ECLU | –
3 | Example 1C: (A14P) (VHH) VHH: EVQLVESGGGLVQPGGSLRLSCAASGRTFNNYAMGWFRRAPGKEREFVAAITRSGVRSGVSAIYGDSVKDRFTISRDNAKNTLYLQMNSLKPEDTAVYTCAASAIGSGALRRFEYDYSGQGTQVTVSS | 10% | 56 ECLU | 91% | 205 ECLU | 96% | 668 ECLU | 90.8% | 268 ECLU | –
4 | Nb6.5 (VHH) VHH: EVQLLESGGGLVQPGGSLRLSCAASGLPFSTKSMGWFRQAPGKGREFVSRISPGGTSRYYGDFVKGRFTISRDNSKNTLYLQMNSLRAEDTAVYYCASGERSTYIGSNYYRTNEYDYWGQGTLVTVSS | – | – | – | – | – | – | – | – | 66 RU
5 | Nb6.2 (VHH) VHH: EVQLVESGGGLVQPGGSLRLSCIASGLPFSTKSMGWFRQAPGKEREFVARISPGGTSRYYGDFVKGRFAISRDNAKNTTWLQMNSLKAEDTAVYYCASGERSTYIGSNYYRTNEYDYWGTGTQVTVSS | – | – | – | – | – | – | – | – | 39 RU
6 | Nb3.10 (VHH) VHH: EVQLVESGGGLVQAGGSLRLSCAASRSIGRLDRMGWYRHRPGEPRELVATITGGSSINYGDSVKGRFTISIDNSKNTVYLQMNSLRPEDTAVYYCNFNKYVTSRDTWGQGTLVTVSS | – | – | – | – | – | – | – | – | 91 RU
7 | Nb3.13 (VHH) VHH: EVQLVESGGGLVQPGGSLRLSCAASRSIGRLDRMGWYRHRPGEPRELVATITGGSSINYGDSVKGRFTISIDNSKNTVYLQMNSLRPEDTAVYYCNFNKYVTSRDTWGQGTQVTVSS | – | – | – | – | – | – | – | – | 90 RU
8 | Nb3.1 (VHH) VHH: EVQLVESGGGLVQAGGSLRLSCAASRSIGRLDRMGWYRHRTGEPRELVATITGGSSINYGDFVKGRFTISIDNAKNTVYLQMNNLKPEDTAVYYCNFNKYVTSRDTWGQGTQVTVSS | – | – | – | – | – | – | – | – | 2 RU
9 | Nb3.11 (VHH) VHH: EVQLVESGGGLVQPGGSLRLSCAASRSIGRLDRMGWYRHRPGEPRELVATITGGSSINYGDSVKGRFTISIDNSKNTVYLQMNSLKPEDTAVYYCNFNKYVTSRDTWGQGTLVTVSS | – | – | – | – | – | – | – | – | 88 RU
10 | Nb3.15 (VHH) VHH: EVQLVESGGGSVQPGGSLRLSCAASRSIGRLDRMGWYRHRPGEPRELVATITGGSSINYGDSVKGRFTISIDNSKNTVYLQMNSLRPEDTAVYYCNFNKYVTSRDTWGQGTLVTVSS | – | – | – | – | – | – | – | – | 22 RU

Continued, values first:

Row | % reduction [1] | ECLU confirmatory assay [1] | % reduction [2] | ECLU confirmatory assay [2] | % reduction [3] | ECLU confirmatory assay [3] | % reduction [4] | ECLU confirmatory assay [4] | Binding (RU) [5] | Binder
11 | 5% | 59 ECLU | 31% | 1530 ECLU | 62% | 6990 ECLU | 13.2% | 2530 ECLU | – | Example 1C: (Q108L) (VHH) VHH: EVQLVESGGGLVQAGGSLRLSCAASGRTFNNYAMGWFRRAPGKEREFVAAITRSGVRSGVSAIYGDSVKDRFTISRDNAKNTLYLQMNSLKPEDTAVYTCAASAIGSGALRRFEYDYSGQGTLVTVSS
12 | 4% | 60 ECLU | 20% | 1780 ECLU | 53% | 8680 ECLU | 7.3% | 2710 ECLU | – | Example 1C: wildtype (VHH) VHH: EVQLVESGGGLVQAGGSLRLSCAASGRTFNNYAMGWFRRAPGKEREFVAAITRSGVRSGVSAIYGDSVKDRFTISRDNAKNTLYLQMNSLKPEDTAVYTCAASAIGSGALRRFEYDYSGQGTQVTVSS
13 | 0% | 62 ECLU | 13% | 1930 ECLU | 18% | 15200 ECLU | -13.1% | 3300 ECLU | – | Example 1C: (A14P, R39Q, K83R, T91Y, Q108L)-3A (VHH) VHH: EVQLVESGGGLVQPGGSLRLSCAASGRTFNNYAMGWFRQAPGKEREFVAAITRSGVRSGVSAIYGDSVKDRFTISRDNAKNTLYLQMNSLRPEDTAVYYCAASAIGSGALRRFEYDYSGQGTLVTVSS
14 | 6% | 58 ECLU | 90% | 228 ECLU | 97% | 570 ECLU | 91.4% | 251 ECLU | – | Example 1c: (A14P, R39Q, K83R,T91Y, Q108L) (VHH) VHH: EVQLVESGGGLVQPGGSLRLSCAASGRTFNNYAMGWFRQAPGKEREFVAAITRSGVRSGVSAIYGDSVKDRFTISRDNAKNTLYLQMNSLRPEDTAVYYCAASAIGSGALRRFEYDYSGQGTLVTVSS
15 | 1% | 62 ECLU | 37% | 1400 ECLU | 63% | 6910 ECLU | 15.7% | 2460 ECLU | – | Example 1C: (K83R) (VHH) VHH: EVQLVESGGGLVQAGGSLRLSCAASGRTFNNYAMGWFRRAPGKEREFVAAITRSGVRSGVSAIYGDSVKDRFTISRDNAKNTLYLQMNSLRPEDTAVYTCAASAIGSGALRRFEYDYSGQGTQVTVSS
16 | – | – | – | – | – | – | – | – | 51 RU | Nb4.1 (VHH) VHH: EVQLVESGGGLVQPGGSLRLSCAASGSVFKINVMAWYRQAPGKGRELVAGIISGGSTSYADSVKGRFTISRDNAKNTLYLQMNSLRPEDTAVYYCAFITTESDYDLGRRYWGQGTLVTVSS
17 | – | – | – | – | – | – | – | – | 86 RU | Nb3.12 (VHH) VHH: EVQLVESGGGLVQAGGSLRLSCAASRSIGRLDRMGWYRHRPGEPRELVATITGGSSINYGDSVKGRFTISIDNSKNTVYLQMNSLRPEDTAVYYCNFNKYVTSRDTWGQGTQVTVSS
18 | – | – | – | – | – | – | – | – | 79 RU | Nb3.14 (VHH) VHH: EVQLVESGGGLVQPGGSLRLSCAASRSIGRLDRMGWYRHRPGEPRELVATITGGSSINYGDSVKGRFTISIDNSKNTVYLQMNSLRPEDTAVYYCNFNKYVTSRDTWGQGTLVQVSS
